Paper PMC8922245, “The Structure of the Arabidopsis PEX4-PEX22 Peroxin Complex—Insights Into Ubiquitination at the Peroxisomal Membrane” (Frontiers in Cell and Developmental Biology, 2022)
Changes are numbered by the printed parent chain. Names may count otherwise. Each block holds one molecule with its values, some of them ahead of it.

Columns and labels:
[1] = target: Pex22 (Saccharomyces cerevisiae) (UniProt P39718); conditions: cited from earlier work
[2] = target: T1, Arabidopsis thaliana PEX22 residues 111-283 (soluble PEX4-interacting domain) (Arabidopsis thaliana, UniProt Q9LSX7 111-283); test: pull-down; purified fusion cut with PreScission protease; His6-MBP-PEX4 or His6-MBP-pex4^P123L held on Ni-NTA resin, 1 h at 4°C; washed with buffer A (25 mM HEPES pH 8, 300 mM NaCl, 5% glycerol, 1 mM TCEP), eluted with buffer B (500 mM imidazole); SDS-PAGE and Coomassie staining; conditions: both partners purified
T1 construct: two N-terminal residues left from the PreScission cleavage site (LEVLFQ|GP); Made on one chain with His6-MBP-PEX4 and separated from it by PreScission cleavage; also called At PEX22; source: purified (Ni-NTA), released with PreScission protease
T1 sequence: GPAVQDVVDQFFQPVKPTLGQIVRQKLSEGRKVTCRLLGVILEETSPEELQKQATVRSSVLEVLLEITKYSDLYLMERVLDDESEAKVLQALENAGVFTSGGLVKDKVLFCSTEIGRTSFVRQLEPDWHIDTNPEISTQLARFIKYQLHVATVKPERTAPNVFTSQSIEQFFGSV

[3] = target: T1, Arabidopsis thaliana PEX22 residues …; test: crystal structure; PEX4-PEX22^111-283 complex from the cleaved fusion, 20 mg/mL in 20 mM Tris pH 7.5, 200 mM NaCl, 1 mM DTT; sitting drop vapor diffusion at 20°C; 100 mM NaCl, 100 mM Bis-Tris Propane pH 9.0, 25% (w/v) PEG 1,500; conditions: both partners purified

Sequence of Pex22 (Saccharomyces cerevisiae) (P39718 whole entry, the tested form may be a part): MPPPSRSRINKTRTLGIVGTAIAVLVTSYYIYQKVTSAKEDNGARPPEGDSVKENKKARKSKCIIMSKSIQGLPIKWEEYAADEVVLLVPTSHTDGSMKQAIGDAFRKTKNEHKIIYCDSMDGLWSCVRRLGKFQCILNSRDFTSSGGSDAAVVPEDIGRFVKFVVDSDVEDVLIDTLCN

Molecule: Pex4 (from UniProt P29340)
Kd [1]: 2 nM

binding result [2]: binds
B1: His6-MBP-PEX4 (Arabidopsis thaliana PEX4, full-length, after PreScission cleavage of the fusion) (enzyme)
chain: MQASRARLFKEYKEVQREKVADPDIQLICDDTNIFKWTALIKGPSETPYEGGVFQLAFSVPEPYPLQPPQVRFLTKIFHPNVHFKTGEICLDILKNAWSPAWTLQSVCRAIIALMAHPEPDSPLNCDSGNLLRSGDVRGFNSMAQMYTRLAAMPKKGLEVLFQ
notes: PEX4 (UBC21), Arabidopsis thaliana, At5g25760, full-length without stop codon; C-terminal residues left from the PreScission cleavage site (LEVLFQ|GP); His6-MBP is joined to PEX4 by a linker with an uncut TEV site (ENLYFQ|S); source: purified (Ni-NTA), cleaved with PreScission protease only; not shown: His6, N-terminal, kept; MBP, N-terminal, kept

binding result [2]: binds
B2: His6-MBP-pex4^P123L (pex4-1 protein, after PreScission cleavage of the fusion) (enzyme, Arabidopsis thaliana)
chain: B1 chain with P123L
notes: PEX4 (UBC21), Arabidopsis thaliana, At5g25760, full-length without stop codon, with the pex4-1 missense change P123L; C-terminal residues left from the PreScission cleavage site (LEVLFQ|GP); pex4-1 is a missense allele isolated in a forward-genetic screen; His6-MBP is joined by a linker with an uncut TEV site (ENLYFQ|S); source: purified (Ni-NTA), cleaved with PreScission protease only; not …

binding result [3]: binds
B3: Arabidopsis thaliana PEX4 (full-length, His6-MBP removed) (enzyme)
chain: SMQASRARLFKEYKEVQREKVADPDIQLICDDTNIFKWTALIKGPSETPYEGGVFQLAFSVPEPYPLQPPQVRFLTKIFHPNVHFKTGEICLDILKNAWSPAWTLQSVCRAIIALMAHPEPDSPLNCDSGNLLRSGDVRGFNSMAQMYTRLAAMPKKGLEVLFQ
notes: one residue left after the TEV protease cleavage site (ENLYFQ|S); residue 0 at the N-terminus; PEX4 (UBC21), Arabidopsis thaliana, At5g25760, full-length without stop codon, residues 1-157; six C-terminal residues left from the PreScission cleavage site (LEVLFQ|GP); residues 158-163; Model in PDB 6XOD holds residues 1-154; residue 0, 155-157 and 158-163 were disordered; also called At PEX4; …
